The values below come from the nanobody polyreactivity screen of Harvey et al. (2022).

The data set is described as follows: yeast display, Sf9 membrane polyspecificity reagent, FACS + sequencing; frameworks hold sequencing errors. In short, it runs like this: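 Synthetic nanobody libraries on Saccharomyces cerevisiae BJ5465 were galactose-induced for 36–48 hours, stained 1 hour at 4 °C with 10% biotinylated, detergent-solubilized Sf9 membrane reagent and enriched on streptavidin microbeads. FACS then separated cells into low and high (top ~1%) gates by anti-HA (expression) and streptavidin (reagent binding) fluorescence. Genes were colony-PCR amplified, MiSeq 2 × 250 sequenced and CDR-length filtered. A clone's polyreactivity label is that of its gate of origin.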
For the sequence “QVQLVESGGGLVQAGGSLRLSCAASGRIFQGYVMGWYRQAPGKERELVAAITTGGSTYYADSVKGRFTISRDNAKNTVYLQMNSLKPEDTAVYYCNAVVYVSGYNPYIFGYWGQGTQVTVSS”, the “polyreactivity (PSR sort gate)” value was “low polyreactivity”.
For “QVQLVESGGGLVQAGGSLRLSCAASGRIFQKYAMGWYRQAPGKERELVAVITGRGGSTYYADSVKGRFTISRDNAKNTVFLLMNSLKKEDTAVYYCASVPGYWGQGTQVTVSS”, the “polyreactivity (PSR sort gate)” value is given as “high polyreactivity”.
With “QVQLVESGGGLVQAGGSLRLSCAASGRIFQLYAMGWYRLAPGKERELVAVISSGDRTYYADSVKGRFTISRDNAKNTVYLQMNSLKPEDTAVYYCAALGWHSGGSRWHGEYDYWGQGTQVTVSS”, the “polyreactivity (PSR sort gate)” value is given as “low polyreactivity”.
Take “QVQLVESGGGLVQAGGSLRLSCAASGRIFQLYAMGWYRQAPGKERELVAANAWSGGSTYYADSVKGRFTISRDNAKNSVYLQMNSLKPEDTAVYDCAVEGYHGSRRYYYWGQGTQVTVSS”: the “polyreactivity (PSR sort gate)” value is “high polyreactivity”.
On to “QVQLVESGGGLVQAGGSLRLSCAASGRIFQQNAMGWYRQAPGKERELVAAISSRGGSTYYADSVKGRFTISRDNAKNTVYLQMNSLKPEDTAVYYCARQYQSYRYRGYDYWGQGTQVTVSS”, for which the “polyreactivity (PSR sort gate)” value is listed as “low polyreactivity”.
Regarding “QVQLVESGGGLVQAGGSLRLSCAASGRIFQQNGMGWYRQAPGKERELVAGINSGVGTNYADSVKGRFTISRDNAKNTVYLQRNSLKPEDTAVYYCAKSQPSYSGDRDYWGPGTQVTVSS”, the “polyreactivity (PSR sort gate)” value is listed as “low polyreactivity”.
For the sequence “QVQLVESGGGLVQAGGSLRLSCAASGRIFQRNAMGWYRLAPGKERELVAAITSTGVRTYYADSVKGRFTISRDNAKNTVYLQLNSLKPEDTAVYYCAVRGERRYIYDYWGQGTQVTVSS”, the “polyreactivity (PSR sort gate)” value is recorded as “high polyreactivity”.
The entry for “QVQLVESGGGLVQAGGSLRLSCAASGRIFQRNVMGWYRQAPGKERELVASITGGGTTNYADSVKGRFTISRDNAKNTVYLQMNSLKPEDTAVYYCAKGYGASNDPGYVRKRYGYWGQGTQVTVSS” is “low polyreactivity”.
The entry for “QVQLVESGGGLVQAGGSLRLSCAASGRIFQTYTMGWYRQAPGKERELVARITGGDSTYYADSVKGRFTISRDNAKNTVYLQMNSLKPEDTAVYYCAGEVWSYWGTFNYWGQGTQVTVSS” is “low polyreactivity”; for “QVQLVESGGGLVQAGGSLRLSCAASGRIFQWNAMGWYRQAPGKERELVATISSRGGSTYYADSVKGRFTISRDNANNTVYLQMNSLKPEDTAVYYCAARYYAKYRSYDYWGLGTQVTVSS” it is “high polyreactivity”; for “QVQLVESGGGLVQAGGSLRLSCAASGRIFQYNAMGWYRQAPGKERELVAAISNSDSTNYADSVKGRFTISRDNAKNTDYLQLNRVKPEDTAVYYCARRYYFYRWVIPDYDYWGQGTQVTVSS” it is “low polyreactivity”.
Consider “QVQLVESGGGLVQAGGSLRLSCAASGRIFQYNVMGWYRKAPGKERELVASISDGVGTNYADSVKGRFTISRDNAKNTVYLQMNSLKPEDTAVYYCARDLDPGYQYTGPYDYWGQGTQVTVSS”, for which the “polyreactivity (PSR sort gate)” value was “low polyreactivity”.
Consider “QVQLVESGGGLVQAGGSLRLSCAASGRIFQYNVMGWYRQAPGKERELVAAISSGGNTYYADSVKGRFTISRDNAKNTVNLPMNSLKPEDTAVYYCAADHYVPWPNYDYDYWGQGTQVTVSS”, for which the “polyreactivity (PSR sort gate)” value is on record as “low polyreactivity”.
The value for “QVQLVESGGGLVQAGGSLRLSCAASGRIFQYYAMGWYRPAPGKEREFVAAISDSGSNTYYADSVMGRFTISRDNAKNTVYLQMNSLKPEDTAVYYSAALYATRALFYYWGQGTQGTVSS” was “low polyreactivity”; that for “QVQLVESGGGLVQAGGSLRLSCAASGRIFQYYAMGWYRQAPGKERELVAAISSRGGSTSYADSVKGRFTISRDKAKNTVYLQMNSLKPEDTAVYYCNAKSRISYWYDYWGQGTQVTVSS” was “high polyreactivity”.
For the sequence “QVQLVESGGGLVQAGGSLRLSCAASGRIFQYYAMGWYRQAPGKERELVAAITRSGGRTYYADSVKGRFTISRDNAKNTVYLQMYSLKPEDTAVYYCAASQRYSVIYYGFSEYDYWGQGTQVTVSS”, the “polyreactivity (PSR sort gate)” value was “high polyreactivity”.
